Biological target: T1, Biotinylated human TNFR2 protein (human, UniProt P20333-1 23-257, biotin (commercial biotinylation kit))
T1 chain: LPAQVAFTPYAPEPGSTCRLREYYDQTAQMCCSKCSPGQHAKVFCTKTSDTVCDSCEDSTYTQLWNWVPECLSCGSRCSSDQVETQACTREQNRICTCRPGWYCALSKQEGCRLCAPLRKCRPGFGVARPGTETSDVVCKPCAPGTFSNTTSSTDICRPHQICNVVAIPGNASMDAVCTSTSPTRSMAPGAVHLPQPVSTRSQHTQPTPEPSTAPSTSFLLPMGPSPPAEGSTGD
Experiment: BLI

B1: human immunodeficiency virus 1 (HIV-1) (group M, subtype B, Isolate MN) gp120 Protein (natural protein)
chain: not shown
koff: 0.00623 s⁻¹

— article PMC13137973 (2026)
